Experimental data from PMC5014685 (Structure (London, England : 1993), 2016).

B1: IQGAP1 GTPase-activating protein (GAP)-related domain (residues 962-1345) (domain or fragment)
chain: GAMSKEKREKLEAYQHLFYLLQTNPTYLAKLIFQMPQNKSTKFMDSVIFTLYNYASNQREEYLLLRLFKTALQEEIKSKVDQIQEIVTGNPTVIKMVVSFNRGARGQNALRQILAPVVKEIMDDKSLNIKTDPVDIYKSWVNQMESQTGEASKLPYDVTPEQALAHEEVKTRLDSSIRNMRAVTDKFLSAIVSSVDKIPYGMRFIAKVLKDSLHEKFPDAGEDELLKIIGNLLYYRYMNPAIVAPDAFDIIDLSAGGQLTTDQRRNLGSIAKMLQHAASNKMFLGDNAHLSIINEYLSQSYQKFRRFFQTACDVPELQDKFNVDEYSDLVTLTKPVIYISIGEIINTHTLLLDHQDAIAPEHNDPIHELLDDLGEVPTIESLIGESS
B2: GRD2 6xAla mutant (N924A, N928A, Q929A, R930A, E931A, S1204A) (domain or fragment)
chain: GAMASKERRKTLETYQQLFYLLQTNPLYLAKLIFQMPQNKSTKFMDTVIFTLYAYASAAAAEYLLLKLFKTALEEEIKSKVDQVQDIVTGNPTVIKMVVSFNRGARGQNTLRQLLAPVVKEIIDDKSLIINTNPVEVYKAWVNQLETQTGEASKLPYDVTTEQALTYPEVKNKLEASIENLRRVTDKVLNSIISSLDLLPYGLRYIAKVLKNSIHEKFPDATEDELLKIVGNLLYYRYMNPAIVAPDGFDIIDMTAGGQINSDQRRNLGSVAKVLQHAASNKLFEGENEHLSSMNNYLSETYQEFRKYFKEACNVPEPEEKFNMDKYTDLVTVAKPVIYISIEEIISTHSLLLEHQDAIAPEKNDLLSELLGSLGEVPTVESFLGEG
B3: human hydrolase deficient (Q61L) Cdc42 (residues 1-177), GTP-loaded (domain or fragment)
chain: not shown
B4: IQGAP2 GTPase-activating protein (GAP)-related domain (residues 875-1257) (domain or fragment, human)
chain: GAMSKERRKTLETYQQLFYLLQTNPLYLAKLIFQMPQNKSTKFMDTVIFTLYNYASNQREEYLLLKLFKTALEEEIKSKVDQVQDIVTGNPTVIKMVVSFNRGARGQNTLRQLLAPVVKEIIDDKSLIINTNPVEVYKAWVNQLETQTGEASKLPYDVTTEQALTYPEVKNKLEASIENLRRVTDKVLNSIISSLDLLPYGLRYIAKVLKNSIHEKFPDATEDELLKIVGNLLYYRYMNPAIVAPDGFDIIDMTAGGQINSDQRRNLGSVAKVLQHAASNKLFEGENEHLSSMNNYLSETYQEFRKYFKEACNVPEPEEKFNMDKYTDLVTVSKPVIYISIEEIISTHSLLLEHQDAIAPEKNDLLSELLGSLGEVPTVESFLGEG
B5: GRD1 6xAla mutant (N1011A, N1015A, Q1016A, R1017A, E1018A, T1291A) (domain or fragment)
chain: GAMASKEKREKLEAYQHLFYLLQTNPTYLAKLIFQMPQNKSTKFMDSVIFTLYAYASAAAAEYLLLRLFKTALQEEIKSKVDQIQEIVTGNPTVIKMVVSFNRGARGQNALRQILAPVVKEIMDDKSLNIKTDPVDIYKSWVNQMESQTGEASKLPYDVTPEQALAHEEVKTRLDSSIRNMRAVTDKFLSAIVSSVDKIPYGMRFIAKVLKDSLHEKFPDAGEDELLKIIGNLLYYRYMNPAIVAPDAFDIIDLSAGGQLTTDQRRNLGSIAKMLQHAASNKMFLGDNAHLSIINEYLSQSYQKFRRFFQTACDVPELQDKFNVDEYSDLVTLAKPVIYISIGEIINTHTLLLDHQDAIAPEHNDPIHELLDDLGEVPTIESLIGESS

How the values were obtained:
[1] = biological target: human hydrolase deficient (Q61L) Rac1 (residues 1-177), GTP-bound (human, UniProt P63000 1-177, Q61L); assay: ITC
[2] = biological target: B4; assay: crystal structure
[3] = biological target: B4; assay: ITC
[4] = biological target: B1; assay: ITC
crystal structure = biological target: the molecule itself; assay: crystal structure

Binder | binding result [1] | further results
B1 | binds | 
B2 | binds | 
B3 |  | stoichiometry N [2]: 2 Cdc42 per GRD2; stoichiometry N [3]: 2 Cdc42 per GRD; stoichiometry N [4]: 2 Cdc42 per GRD
B4 | binds | stoichiometry N (crystal structure): 2
B5 | binds | 
